This is an account of results in publication doi:10.1101/869925 (bioRxiv, 2019).

Series [1] deals with the molecule itself. Description: fluorescence correlation spectroscopy.
The series “native gel or EMSA” deals with the molecule itself. Put plainly: native gel or EMSA. On the technique in general: Mobility shift assays separate free from complexed probe on a gel.

In general, stoichiometry N refers to the number of molecules, sites or subunits per partner or assembly.

B1: his-EmGFP-DBNL(1-256) (domain or fragment)
chain: not shown
Turning to B1, the binding result in series [1] was “binds”.

B2: his-EmGFP-DBNL(1-374) (domain or fragment)
chain: not shown
With B2, in series [1], the binding result is listed as “binds”.

B3: endogenous human drebrin-like protein (DBNL) (natural protein)
chain: not shown
Turning to B3, the “stoichiometry N” value in the series “native gel or EMSA” worked out at 2.
